Results as given in PMC12820974, “Zinc-Mediated Loading and Release of His-Tagged Recombinant Proteins in Self-Assembling Peptide Coacervates” (ACS Applied Bio Materials, 2025).

What was measured:
[1] = target: EAKH6 self-assembling peptide (EAK16-II with a C-terminal hexa-histidine tag)
[2] = target: EAKH6 self-assembling peptide (EAK16-II with a C-terminal hexa-histidine tag); remark: listed apart in the source
[3] = target: the molecule itself; experiment: Congo red staining (fluorescence microscopy and UV-vis absorbance); EAKH6 alone and with Zn2+ at molar ratios 1:20 to 20:1, incubated with Congo red in PBS overnight at room temperature; fibrils imaged, shift of absorbance from 500 to 540 nm

in vitro release of HisGFP from Ca2+:EAKH6 (10:1, without Zn2+) coacervates, control; released in 5 days [1]	apparent diffusion (D app) of HisGFP out of Ca2+:EAKH6 coacervates (without Zn2+), control, from the release up to 8 h [2]	apparent diffusion (D app) of HisGFP out of Zn2+:EAKH6 coacervates, from the release up to 8 h [2]	Molecule	binding result [3]
98%	2.07e-11 m^2 s^-1	6.7e-12 m^2 s^-1	Green Fluorescent Protein coexpressed with a hexahistidine tag	–
–	–	–	Ac-AEAEAKAKAEAEAKAKHHHHHH-NH2 (hexa-histidine tag (H6) at the C-terminus; written as a part because Zn2+ bridges it to the His tag of the cargo protein; In the assays the peptide stood as self-assembled fibrils (coacervate), with ZnCl2 or CaCl2 where said; also called Zn2+:EAKH6 (its coacervate with zinc); Ca2+:EAKH6 (with calcium); source: synthetic peptide, custom-synthesized by Biomatek (>95% purity by HPLC)) [EAKH6 self-assembling peptide (EAK16-II with a C-terminal hexa-histidine tag)]	binds
